Results reported in patent publication US12552834 (MIT, dated 2026).
Where two headings read alike, the source gives them in different places.

B1: SHROOM3 36-mer peptide (peptide)
peptide: MAGGLNDIFEAQKIEWHEDTGGSSHHHHHHGSGSGSDSEVNQEAKPEVKPEVKPETHINLKVSDGSSEIFFKIKKTTPLRRLMEAFAKRQGKEMDSLTFLYDGIEIQADQTPEDLDMEDNDIIEAHREQIGGSGSGVYSMDDFPPPPPHTVCEAQLDSEDPEGPRPSFNKLS
modifications: biotinylated (BAP tag)
notes: Tested as a biotinylated BAP-6xHis-SUMO-peptide fusion
B2: FHOD1 peptide (peptide)
peptide: MAGGLNDIFEAQKIEWHEDTGGSSHHHHHHGSGSGSDSEVNQEAKPEVKPEVKPETHINLKVSDGSSEIFFKIKKTTPLRRLMEAFAKRQGKEMDSLTFLYDGIEIQADQTPEDLDMEDNDIIEAHREQIGGSGSGSVPPPPPLPPPPPIKGPFPPPPPLPLAAPLPHSVPD
modifications: biotinylated (BAP tag)
notes: as for B1
B3: TNK2 36-mer peptide (peptide)
peptide: MAGGLNDIFEAQKIEWHEDTGGSSHHHHHHGSGSGSDSEVNQEAKPEVKPEVKPETHINLKVSDGSSEIFFKIKKTTPLRRLMEAFAKRQGKEMDSLTFLYDGIEIQADQTPEDLDMEDNDIIEAHREQIGGSGSGTPVVDWDARPLPPPPAYDDVAQDEDDFEICSINSTL
modifications: biotinylated (BAP tag)
notes: as for B1
B4: KIAA1522 36-mer peptide (peptide)
peptide: MAGGLNDIFEAQKIEWHEDTGGSSHHHHHHGSGSGSDSEVNQEAKPEVKPEVKPETHINLKVSDGSSEIFFKIKKTTPLRRLMEAFAKRQGKEMDSLTFLYDGIEIQADQTPEDLDMEDNDIIEAHREQIGGSGSGPPAPEEQDLSMADFPPPEEAFFSVASPEPAGPSGSP
modifications: biotinylated (BAP tag)
notes: Tested as a biotinylated BAP-6xHis-SUMO-peptide fusion; also called KIAAA1522
B5: FYB1 36-mer peptide (peptide)
peptide: MAGGLNDIFEAQKIEWHEDTGGSSHHHHHHGSGSGSDSEVNQEAKPEVKPEVKPETHINLKVSDGSSEIFFKIKKTTPLRRLMEAFAKRQGKEMDSLTFLYDGIEIQADQTPEDLDMEDNDIIEAHREQIGGSGSGSGSGGIFPPPPDDDIYDGIEEEDADDGFPAPPKQLD
modifications: biotinylated (BAP tag)
notes: as for B1
B6: LPP FP4 1 peptide (peptide)
peptide: MAGGLNDIFEAQKIEWHEDTGGSSHHHHHHGSGSGSDSEVNQEAKPEVKPEVKPETHINLKVSDGSSEIFFKIKKTTPLRRLMEAFAKRQGKEMDSLTFLYDGIEIQADQTPEDLDMEDNDIIEAHREQIGGSGSGKQPGGEGDFLPPPPPPLDDSSALPSISGN
modifications: biotinylated (BAP tag)
notes: Truncation of the LPP 36mer that keeps the first FP4 motif, tested as a SUMO fusion
B7: LPP Minimal peptide (peptide)
peptide: MAGGLNDIFEAQKIEWHEDTGGSSHHHHHHGSGSGSDSEVNQEAKPEVKPEVKPETHINLKVSDGSSEIFFKIKKTTPLRRLMEAFAKRQGKEMDSLTFLYDGIEIQADQTPEDLDMEDNDIIEAHREQIGGSGSGGDFLPPPPPPLGGGSGSGGGSGSFPPPPPL
modifications: biotinylated (BAP tag)
notes: Engineered variant, tested as a SUMO fusion
B8: SYNPO2 36-mer peptide (peptide)
peptide: MAGGLNDIFEAQKIEWHEDTGGSSHHHHHHGSGSGSDSEVNQEAKPEVKPEVKPETHINLKVSDGSSEIFFKIKKTTPLRRLMEAFAKRQGKEMDSLTFLYDGIEIQADQTPEDLDMEDNDIIEAHREQIGGSGSGKSPIADFPAPPPYSAVTPPPDAFSRGVSSPIAGPAQ
modifications: biotinylated (BAP tag)
notes: as for B1
B9: ABI1 a peptide (peptide)
peptide: MAGGLNDIFEAQKIEWHEDTGGSSHHHHHHGSGSGSDSEVNQEAKPEVKPEVKPETHINLKVSDGSSEIFFKIKKTTPLRRLMEAFAKRQGKEMDSLTFLYDGIEIQADQTPEDLDMEDNDIIEAHREQIGGSGSGFDDFPPPPPPPPVDYED
modifications: biotinylated (BAP tag)
notes: ABI1 truncation, tested as a SUMO fusion
B10: TJAP1 36-mer peptide (peptide)
peptide: MAGGLNDIFEAQKIEWHEDTGGSSHHHHHHGSGSGSDSEVNQEAKPEVKPEVKPETHINLKVSDGSSEIFFKIKKTTPLRRLMEAFAKRQGKEMDSLTFLYDGIEIQADQTPEDLDMEDNDIIEAHREQIGGSGSGPEEELPLPAFEKLNPYPTPSPPHPLYPGRRVIEFSE
modifications: biotinylated (BAP tag)
notes: as for B1
B11: ABI3 36-mer peptide (peptide)
peptide: MAGGLNDIFEAQKIEWHEDTGGSSHHHHHHGSGSGSDSEVNQEAKPEVKPEVKPETHINLKVSDGSSEIFFKIKKTTPLRRLMEAFAKRQGKEMDSLTFLYDGIEIQADQTPEDLDMEDNDIIEAHREQIGGSGSGSPPPPDEELPLPLDLPPPPPLDGDELGLPPPPPGFG
modifications: biotinylated (BAP tag)
notes: as for B1
B12: FDDFP8 peptide (peptide)
peptide: MAGGLNDIFEAQKIEWHEDTGGSSHHHHHHGSGSGSDSEVNQEAKPEVKPEVKPETHINLKVSDGSSEIFFKIKKTTPLRRLMEAFAKRQGKEMDSLTFLYDGIEIQADQTPEDLDMEDNDIIEAHREQIGGSGSGFDDFPPPPPPPP
modifications: biotinylated (BAP tag)
notes: as for B9
B13: NUTM2E 36-mer peptide (peptide)
peptide: MAGGLNDIFEAQKIEWHEDTGGSSHHHHHHGSGSGSDSEVNQEAKPEVKPEVKPETHINLKVSDGSSEIFFKIKKTTPLRRLMEAFAKRQGKEMDSLTFLYDGIEIQADQTPEDLDMEDNDIIEAHREQIGGSGSGVVPVMAAQVVGGTQACEGGWSQGLPLPPPPPPAAQL
modifications: biotinylated (BAP tag)
notes: as for B1
B14: LPP Duplicated peptide (peptide)
peptide: MAGGLNDIFEAQKIEWHEDTGGSSHHHHHHGSGSGSDSEVNQEAKPEVKPEVKPETHINLKVSDGSSEIFFKIKKTTPLRRLMEAFAKRQGKEMDSLTFLYDGIEIQADQTPEDLDMEDNDIIEAHREQIGGSGSGKQPGGEGDFLPPPPPPLDDSSALPSISGNDDSSALPSISGNFPPPPPL
modifications: biotinylated (BAP tag)
notes: as for B7
B15: NHSL1 FP4 2 peptide (peptide)
peptide: MAGGLNDIFEAQKIEWHEDTGGSSHHHHHHGSGSGSDSEVNQEAKPEVKPEVKPETHINLKVSDGSSEIFFKIKKTTPLRRLMEAFAKRQGKEMDSLTFLYDGIEIQADQTPEDLDMEDNDIIEAHREQIGGSGSGPVTDCSQGSPLPHSPVFPPPPPEAL
modifications: biotinylated (BAP tag)
notes: Truncation of the NHSL1 36mer that keeps the second FP4 motif, tested as a SUMO fusion
B16: PCARE 36-residue peptide (PCARE813-848) (peptide)
peptide: MAGGLNDIFEAQKIEWHEDTGGSSHHHHHHGSGSGSDSEVNQEAKPEVKPEVKPETHINLKVSDGSSEIFFKIKKTTPLRRLMEAFAKRQGKEMDSLTFLYDGIEIQADQTPEDLDMEDNDIIEAHREQIGGSGSGAAKSEELSCEMEGNLEHLPPPPMEVLMDKSFASLES
modifications: biotinylated (BAP tag)
notes: Tested in BLI as a biotinylated BAP-6xHis-SUMO-peptide fusion; also called PCARE 36-mer
B17: LPP FP4 2 peptide (peptide)
peptide: MAGGLNDIFEAQKIEWHEDTGGSSHHHHHHGSGSGSDSEVNQEAKPEVKPEVKPETHINLKVSDGSSEIFFKIKKTTPLRRLMEAFAKRQGKEMDSLTFLYDGIEIQADQTPEDLDMEDNDIIEAHREQIGGSGSGPPLDDSSALPSISGNFPPPPPL
modifications: biotinylated (BAP tag)
notes: Truncation of the LPP 36mer that keeps the second FP4 motif, tested as a SUMO fusion
B18: Minimum General peptide (peptide)
peptide: MAGGLNDIFEAQKIEWHEDTGGSSHHHHHHGSGSGSDSEVNQEAKPEVKPEVKPETHINLKVSDGSSEIFFKIKKTTPLRRLMEAFAKRQGKEMDSLTFLYDGIEIQADQTPEDLDMEDNDIIEAHREQIGGSGSGDFLPPPPGGGGGGSGSGGGSGSFPPPPGG
modifications: biotinylated (BAP tag)
notes: Engineered peptide, tested as a SUMO fusion
B19: FBLIM1 36-mer peptide (peptide)
peptide: MAGGLNDIFEAQKIEWHEDTGGSSHHHHHHGSGSGSDSEVNQEAKPEVKPEVKPETHINLKVSDGSSEIFFKIKKTTPLRRLMEAFAKRQGKEMDSLTFLYDGIEIQADQTPEDLDMEDNDIIEAHREQIGGSGSGPPVLDGEDVLPDLDLLPPPPPPPPVLLPSEEEAPAP
modifications: biotinylated (BAP tag)
notes: as for B1
B20: Zyxin 36-mer peptide (peptide)
peptide: MAGGLNDIFEAQKIEWHEDTGGSSHHHHHHGSGSGSDSEVNQEAKPEVKPEVKPETHINLKVSDGSSEIFFKIKKTTPLRRLMEAFAKRQGKEMDSLTFLYDGIEIQADQTPEDLDMEDNDIIEAHREQIGGSGSGALGGAFPPPPPPIEESFPPAPLEEEIFPSPPPPPEE
modifications: biotinylated (BAP tag)
notes: as for B1
B21: NHSL1 Duplicated peptide (peptide)
peptide: MAGGLNDIFEAQKIEWHEDTGGSSHHHHHHGSGSGSDSEVNQEAKPEVKPEVKPETHINLKVSDGSSEIFFKIKKTTPLRRLMEAFAKRQGKEMDSLTFLYDGIEIQADQTPEDLDMEDNDIIEAHREQIGGSGSGADRSPFLPPPPPVTDCSQGSPLPHSPVPVTDCSQGSPLPHSPVFPPPPPEAL
modifications: biotinylated (BAP tag)
notes: as for B7
B22: FP8 peptide (FPPPPPPPP) (peptide)
peptide: MAGGLNDIFEAQKIEWHEDTGGSSHHHHHHGSGSGSDSEVNQEAKPEVKPEVKPETHINLKVSDGSSEIFFKIKKTTPLRRLMEAFAKRQGKEMDSLTFLYDGIEIQADQTPEDLDMEDNDIIEAHREQIGGSGSGFPPPPPPPP
modifications: biotinylated (BAP tag)
notes: as for B9
B23: FP4S4 peptide (FPPPPSSSS) (peptide)
peptide: MAGGLNDIFEAQKIEWHEDTGGSSHHHHHHGSGSGSDSEVNQEAKPEVKPEVKPETHINLKVSDGSSEIFFKIKKTTPLRRLMEAFAKRQGKEMDSLTFLYDGIEIQADQTPEDLDMEDNDIIEAHREQIGGSGSGFPPPPSSSS
modifications: biotinylated (BAP tag)
notes: Tested as a SUMO fusion
B24: NHSL1 FP4 1 peptide (peptide)
peptide: MAGGLNDIFEAQKIEWHEDTGGSSHHHHHHGSGSGSDSEVNQEAKPEVKPEVKPETHINLKVSDGSSEIFFKIKKTTPLRRLMEAFAKRQGKEMDSLTFLYDGIEIQADQTPEDLDMEDNDIIEAHREQIGGSGSGADRSPFLPPPPPVTDCSQGSPLPHSPV
modifications: biotinylated (BAP tag)
notes: Truncation of the NHSL1 36mer that keeps the first FP4 motif, tested as a SUMO fusion

Assays:
[1] = biological target: T1, ENAH EVH1 domain (monomeric, wild type) (human, UniProt Q03173 1-111 (mouse entry)); assay: BLI, steady state; SUMO-peptide immobilised, EVH1 monomer in solution
T1 construct: ENAH residue numbers in the text count from the Met at position 25 of this entry; also called ENAH EVH1 WT; Mena EVH1 WT
Protocol: (§1) All BLI experiments were performed with 2 replicates on an Octet Red96 instrument (ForteBio). […] The loaded tips were immersed in a solution of ENAH EVH1 domain at a relevant dilution series in BLI buffer at an orbital shake speed of 1000 rpm and run until the binding signal plateaued. ENAH-bound tips were subsequently placed into BLI buffer only for dissociation and run until the binding signal plateaued. K_D values were obtained through steady state analysis. […] The association phases were then fit to a one-phase binding model in Prism and the equilibrium steady-state binding signal values from that fit were plotted against ENAH concentration and fit to a single-site specific binding model in Prism to obtain dissociation constants. Errors reported are the standard deviation of two replicates.

[2] = biological target: T2, ENAH EVH1 domain with Arg47 mutated to Ala (human, UniProt Q03173 1-111 (mouse entry)); assay: as above
T2 construct: also called ENAH R47A; ENAH EVH1 R47A
Protocol: as §1

[3] = biological target: T1, ENAH EVH1 domain (monomeric, wild type); assay: as above; remark: listed apart in the source
Protocol: as §1

[4] = biological target: T1, ENAH EVH1 domain (monomeric, wild type); assay: BLI
Protocol: as §1

[5] = biological target: T1, ENAH EVH1 domain (monomeric, wild type); assay: BLI, steady state; SUMO-peptide immobilised, EVH1 monomer in solution; remark: listed apart in the source
Protocol: as §1

[6] = biological target: T2, ENAH EVH1 domain with Arg47 mutated to …; assay: as above; remark: listed apart in the source
Protocol: as §1

[7] = biological target: T1, ENAH EVH1 domain (monomeric, wild type); assay: as above; remark: listed apart in the source
Protocol: as §1

T2 sequence (Q03173 other isoform, or with tags, fused parts or gaps limits assumed, stated change not applied): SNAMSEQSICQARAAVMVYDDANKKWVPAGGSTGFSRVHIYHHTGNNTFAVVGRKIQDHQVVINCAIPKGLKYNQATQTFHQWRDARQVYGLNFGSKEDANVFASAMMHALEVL
T1 sequence (Q03173 other isoform, or with tags, fused parts or gaps limits assumed): as the sequence (Q03173 other isoform, or with tags, fused parts or gaps limits assumed, stated change not applied) above, with A50R counted along it

Binder | Kd [1] | Kd [2] | Kd [3] | other results
B1 | 9.3 µM |  |  | 
B2 | 50.4 µM |  |  | 
B3 | 21.2 µM |  |  | 
B4 | 14 µM |  |  | 
B5 | 24.3 µM |  |  | 
B6 |  | 61.3 µM | 12.4 µM | 
B7 |  | 124 µM | 15.8 µM | fold reduction in affinity relative to the LPP 36-mer [4]: ~4 fold
B8 | 52.1 µM |  |  | 
B9 |  |  |  | Kd [5]: 5.21 µM
B10 | 23.9 µM |  |  | 
B11 | 13.6 µM |  |  | 
B12 |  |  |  | Kd [5]: 10.1 µM; fold decrease in affinity on truncation of the flank [4]: 2.5 fold
B13 | 33.9 µM |  |  | 
B14 |  | 54.2 µM | 6.66 µM | 
B15 |  | 51 µM | 24.4 µM | 
B16 | 0.192 µM |  |  | Kd [6]: 0.331 µM; Kd [7]: 0.192 µM
B17 |  | 75.2 µM | 28.3 µM | 
B18 |  | 86.9 µM | 92.6 µM | 
B19 | 16 µM |  |  | 
B20 | 4.79 µM |  |  | Kd [6]: 54.5 µM; Kd [7]: 4.79 µM
B21 |  | 70 µM | 18.4 µM | 
B22 |  |  |  | Kd [5]: 28.5 µM; fold decrease in affinity on truncation of the flank [4]: 3 fold
B23 |  |  |  | Kd [5]: 114 µM; fold reduction in affinity against … [4]: ~4 fold
B24 |  | 99.1 µM | 48.7 µM | 
